Measured values taken from US12338277.

Assays:
Experiment in all cases: cell-based or functional assay
[1] = target: HIV-1 envelope of pseudovirus 620345.c01 (HIV-1)
[2] = target: HIV-1 envelope spike of pseudovirus R1166.c1 (HIV-1)
[3] = target: HIV-1 envelope of pseudovirus CNE19 (HIV-1)
[4] = target: HIV-1 Env of pseudovirus R1166.c01 (HIV-1)
[5] = target: HIV-1 Env of pseudovirus BJOX015000.11.5 (HIV-1)
[6] = target: HIV-1 envelope of pseudovirus T255-34 (HIV-1)
[7] = target: HIV-1 envelope of pseudovirus 3365.v2.c2 (HIV-1)
[8] = target: HIV-1 envelope of pseudovirus Ce703010054_2A2 (HIV-1)
[9] = target: HIV-1 envelope of pseudovirus X2088_c9 (HIV-1)
[10] = target: HIV-1 envelope of pseudovirus PVO.4 (HIV-1)
[11] = target: HIV-1 envelope of pseudovirus 928-28 (HIV-1)
[12] = target: HIV-1 envelope of pseudovirus ZM197M.PB7 (HIV-1)
[13] = target: HIV-1 Env of pseudovirus A07412M1.vrc12 (HIV-1)
[14] = target: HIV-1 envelope of pseudovirus TRJO4551.58 (HIV-1)
[15] = target: HIV-1 envelope of pseudovirus 263-8 (HIV-1)
[16] = target: HIV-1 envelope of pseudovirus X2131_C1_85 (HIV-1)
[17] = target: HIV-1 envelope of pseudovirus CAP210.2.00.E8 (HIV-1)
[18] = target: HIV-1 envelope of pseudovirus 231965.c01 (HIV-1)
[19] = target: HIV-1 envelope of pseudovirus Du422.1 (HIV-1)
[20] = target: HIV-1 envelope of pseudovirus 6952.v1.c20 (HIV-1)
[21] = target: HIV-1 envelope of pseudovirus 6480.v4.c25 (HIV-1)
[22] = target: HIV-1 Env of pseudovirus P1981_C5_3 (HIV-1)
[23] = target: HIV-1 envelope of pseudovirus P1981_C5_3 (HIV-1)
[24] = target: HIV-1 envelope of pseudovirus Ce2010_F5 (HIV-1)
[25] = target: HIV-1 Env of pseudovirus BJOX009000.02.4 (HIV-1)
[26] = target: HIV-1 envelope glycoprotein of pseudovirus BJOX009000.02.4 (clade CRF01_AE) (HIV-1)
[27] = target: HIV-1 envelope glycoprotein of pseudovirus HIV-16845-2.22 (clade C) (HIV-1)
[28] = target: HIV-1 envelope glycoprotein of pseudovirus 62357_14_D3_4589 (clade B (T/F)) (HIV-1)
[29] = target: HIV-1 envelope glycoprotein of pseudovirus WITO4160.33 (clade B) (HIV-1)
[30] = target: HIV-1 envelope glycoprotein of pseudovirus Ce1172_H1 (clade C (T/F)) (HIV-1)
[31] = target: HIV-1 envelope glycoprotein of pseudovirus Ce1086_B2 (clade C (T/F)) (HIV-1)
[32] = target: HIV-1 envelope glycoprotein of pseudovirus 3817.v2.c59 (clade CD) (HIV-1)
[33] = target: HIV-1 envelope glycoprotein of pseudovirus 1394C9G1(Rev-) (clade C (T/F)) (HIV-1)
[34] = target: HIV-1 envelope glycoprotein of pseudovirus X1254_c3 (clade G) (HIV-1)
[35] = target: HIV-1 envelope glycoprotein of pseudovirus PVO.4 (clade B) (HIV-1)
[36] = target: HIV-1 envelope glycoprotein of pseudovirus 0260.v5.c36 (clade A) (HIV-1)
[37] = target: HIV-1 envelope glycoprotein of pseudovirus 6952.v1.c20 (clade CD) (HIV-1)
[38] = target: HIV-1 envelope glycoprotein of pseudovirus CNE30 (clade BC) (HIV-1)
[39] = target: HIV-1 envelope of pseudovirus ZM233M.PB6 (HIV-1)
[40] = target: HIV-1 envelope glycoprotein of pseudovirus 263-8 (clade CRF02_AG) (HIV-1)
[41] = target: HIV-1 envelope glycoprotein of pseudovirus HIV-16055-2.3 (clade C) (HIV-1)
[42] = target: HIV-1 envelope glycoprotein of pseudovirus YU.2 (clade B) (HIV-1) (UniProt P35961)
Sequence of HIV-1 envelope glycoprotein of pseudovirus YU.2 (clade B) (HIV-1) (P35961 32-843): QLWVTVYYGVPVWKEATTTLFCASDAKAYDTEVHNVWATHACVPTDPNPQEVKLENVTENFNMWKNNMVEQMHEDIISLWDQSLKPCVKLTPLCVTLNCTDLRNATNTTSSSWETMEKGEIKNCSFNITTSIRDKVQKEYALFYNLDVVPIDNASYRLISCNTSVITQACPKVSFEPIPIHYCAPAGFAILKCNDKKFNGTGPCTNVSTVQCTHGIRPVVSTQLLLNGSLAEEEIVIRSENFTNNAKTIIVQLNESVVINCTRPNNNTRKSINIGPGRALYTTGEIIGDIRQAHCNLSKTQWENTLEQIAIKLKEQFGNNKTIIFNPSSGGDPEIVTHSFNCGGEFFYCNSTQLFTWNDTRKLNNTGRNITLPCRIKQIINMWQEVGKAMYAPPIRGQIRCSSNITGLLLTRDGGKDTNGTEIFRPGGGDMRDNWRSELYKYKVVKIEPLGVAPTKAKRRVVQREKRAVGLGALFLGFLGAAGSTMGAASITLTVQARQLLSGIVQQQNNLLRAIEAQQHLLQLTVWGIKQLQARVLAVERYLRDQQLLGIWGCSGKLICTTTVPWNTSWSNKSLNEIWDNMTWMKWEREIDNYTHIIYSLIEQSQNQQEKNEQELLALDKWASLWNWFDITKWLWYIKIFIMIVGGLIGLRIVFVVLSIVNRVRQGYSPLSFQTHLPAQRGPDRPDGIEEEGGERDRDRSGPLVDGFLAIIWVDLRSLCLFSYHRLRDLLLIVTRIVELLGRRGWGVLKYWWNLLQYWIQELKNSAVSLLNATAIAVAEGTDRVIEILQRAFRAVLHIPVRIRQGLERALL

[43] = target: HIV-1 envelope glycoprotein of pseudovirus 6244_13_B5_4576 (clade B (T/F)) (HIV-1)
[44] = target: HIV-1 envelope glycoprotein of pseudovirus Q842.d12 (clade A) (HIV-1)
[45] = target: HIV-1 envelope glycoprotein of pseudovirus A07412m1.vrv12 (clade D) (HIV-1)
[46] = target: HIV-1 envelope glycoprotein of pseudovirus CNE17 (clade BC) (HIV-1)
[47] = target: HIV-1 envelope glycoprotein of pseudovirus ZM214M.PL15 (clade C) (HIV-1)

Sequence of 10-996 (antibody) (VH): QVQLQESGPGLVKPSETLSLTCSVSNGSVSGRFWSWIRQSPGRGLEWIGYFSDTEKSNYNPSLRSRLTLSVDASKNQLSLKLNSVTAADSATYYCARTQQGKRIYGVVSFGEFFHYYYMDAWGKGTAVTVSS
Sequence of 10-996 (antibody) (VL): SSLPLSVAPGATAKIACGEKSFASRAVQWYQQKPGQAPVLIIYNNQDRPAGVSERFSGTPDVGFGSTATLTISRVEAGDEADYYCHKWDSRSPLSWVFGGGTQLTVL
Sequence of 10-1074 (antibody) (VH): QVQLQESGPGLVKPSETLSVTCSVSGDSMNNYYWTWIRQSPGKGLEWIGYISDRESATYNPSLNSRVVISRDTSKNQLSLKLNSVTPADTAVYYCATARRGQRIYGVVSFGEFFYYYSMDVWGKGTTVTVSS
Sequence of 10-1074 (antibody) (V domain): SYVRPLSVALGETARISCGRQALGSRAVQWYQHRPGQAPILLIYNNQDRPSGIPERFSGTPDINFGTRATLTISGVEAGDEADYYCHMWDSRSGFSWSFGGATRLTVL

For 10-996 (antibody), the IC50 (TZM-bl neutralization) [1] was > 50 µg/mL, the IC50 (TZM-bl neutralization assay) [2] was > 40 µg/mL and the IC80 (TZM-bl neutralization assay) [2] was > 40 µg/mL. For the same substance, the IC50 (TZM-bl neutralization) [3] was 3.45 µg/mL, the IC80 (TZM-bl neutralization) [4] was > 50 µg/mL and the IC80 (TZM-bl neutralization) [5] was > 50 µg/mL. For the same substance, the IC50 (TZM-bl neutralization) [6] was 28.4 µg/mL, the IC50 (TZM-bl neutralization) [7] was 0.286 µg/mL and the IC50 (TZM-bl neutralization) [8] was > 50 µg/mL. The IC50 (TZM-bl neutralization) [9] was 0.002 µg/mL, the IC50 (TZM-bl neutralization) [10] was 0.186 µg/mL and the IC50 (TZM-bl neutralization) [11] was 1.33 µg/mL. The IC50 (TZM-bl neutralization) [12] was > 50 µg/mL, the IC80 (TZM-bl neutralization) [13] was 0.07 µg/mL and the IC50 (TZM-bl neutralization) [14] was 0.147 µg/mL. It also gave an IC50 (TZM-bl neutralization) [15] of 10.9 µg/mL, an IC50 (TZM-bl neutralization) [16] of 0.019 µg/mL and an IC50 (TZM-bl neutralization) [17] of 24.8 µg/mL. For the same substance, the IC50 (TZM-bl neutralization) [18] was > 50 µg/mL, the IC50 (TZM-bl neutralization) [19] was 0.056 µg/mL and the IC50 (TZM-bl neutralization) [20] was 0.044 µg/mL. For the same substance, the IC50 (TZM-bl neutralization) [21] was 0.01 µg/mL, the IC80 (TZM-bl neutralization) [22] was 0.018 µg/mL and the IC50 (TZM-bl neutralization) [23] was 0.005 µg/mL. The IC50 (TZM-bl neutralization) [24] was > 50 µg/mL.
For PGT121 (antibody), the IC80 (TZM-bl neutralization) [25] was 37.3 µg/mL, the IC50 (TZM-bl neutralization) [1] was > 50 µg/mL and the IC50 (TZM-bl neutralization assay) [2] was > 40 µg/mL. For the same substance, the IC80 (TZM-bl neutralization assay) [2] was > 40 µg/mL, the IC50 in the TZM-bl neutralization assay [26] was 37.3 µg/mL and the IC50 in the TZM-bl neutralization assay [27] was > 50 µg/mL. For the same substance, the IC80 (TZM-bl neutralization) [4] was > 50 µg/mL, the IC80 (TZM-bl neutralization) [5] was > 50 µg/mL and the IC50 in the TZM-bl neutralization assay [28] was 45.6 µg/mL. For the same substance, the IC50 in the TZM-bl neutralization assay [29] was 6.01 µg/mL, the IC50 (TZM-bl neutralization) [6] was 6.72 µg/mL and the IC50 (TZM-bl neutralization) [7] was 0.921 µg/mL. The IC50 in the TZM-bl neutralization assay [30] was 0.088 µg/mL, the IC50 (TZM-bl neutralization) [8] was > 50 µg/mL and the IC50 in the TZM-bl neutralization assay [31] was 0.006 µg/mL. For the same substance, the IC50 (TZM-bl neutralization) [10] was 0.131 µg/mL, the IC50 (TZM-bl neutralization) [11] was > 50 µg/mL and the IC50 in the TZM-bl neutralization assay [32] was > 50 µg/mL. The IC50 in the TZM-bl neutralization assay [33] was 3.37 µg/mL, the IC50 in the TZM-bl neutralization assay [34] was 0.199 µg/mL and the IC50 in the TZM-bl neutralization assay [35] was 0.945 µg/mL. For the same substance, the IC50 (TZM-bl neutralization) [12] was > 50 µg/mL, the IC50 in the TZM-bl neutralization assay [36] was 0.152 µg/mL and the IC50 in the TZM-bl neutralization assay [37] was 0.605 µg/mL. For the same substance, the IC80 (TZM-bl neutralization) [13] was 0.406 µg/mL, the IC50 in the TZM-bl neutralization assay [38] was 0.559 µg/mL and the IC50 (TZM-bl neutralization) [39] was 1.45 µg/mL. For the same substance, the IC50 in the TZM-bl neutralization assay [40] was 24.6 µg/mL, the IC50 in the TZM-bl neutralization assay [41] was 4.29 µg/mL and the IC50 in the TZM-bl neutralization assay [42] was 0.356 µg/mL. It also gave an IC50 (TZM-bl neutralization) [14] of 3.73 µg/mL, an IC50 (TZM-bl neutralization) [15] of 3.35 µg/mL and an IC50 (TZM-bl neutralization) [17] of 5.08 µg/mL. The IC50 in the TZM-bl neutralization assay [43] was 1.88 µg/mL, the IC50 (TZM-bl neutralization) [18] was > 50 µg/mL and the IC50 in the TZM-bl neutralization assay [44] was 0.074 µg/mL. For the same substance, the IC50 in the TZM-bl neutralization assay [45] was 0.406 µg/mL, the IC50 in the TZM-bl neutralization assay [46] was > 50 µg/mL and the IC50 (TZM-bl neutralization) [20] was 0.085 µg/mL. For the same substance, the IC50 (TZM-bl neutralization) [21] was 0.017 µg/mL, the IC50 in the TZM-bl neutralization assay [47] was 3.15 µg/mL and the IC50 (TZM-bl neutralization) [23] was 0.004 µg/mL. For the same substance, the IC50 (TZM-bl neutralization) [24] was > 50 µg/mL.
For 10-1074 (antibody), the IC80 (TZM-bl neutralization) [25] was > 50 µg/mL, the IC50 (TZM-bl neutralization) [1] was > 50 µg/mL and the IC50 (TZM-bl neutralization assay) [2] was > 40 µg/mL. The IC80 (TZM-bl neutralization assay) [2] was > 40 µg/mL, the IC50 (TZM-bl neutralization) [3] was 50 µg/mL and the IC50 in the TZM-bl neutralization assay [26] was > 50 µg/mL. The IC50 in the TZM-bl neutralization assay [27] was 5.83 µg/mL, the IC80 (TZM-bl neutralization) [4] was > 50 µg/mL and the IC80 (TZM-bl neutralization) [5] was > 50 µg/mL. For the same substance, the IC50 in the TZM-bl neutralization assay [28] was > 50 µg/mL, the IC50 in the TZM-bl neutralization assay [29] was 2.11 µg/mL and the IC50 (TZM-bl neutralization) [6] was > 50 µg/mL. For the same substance, the IC50 (TZM-bl neutralization) [7] was 0.131 µg/mL, the IC50 in the TZM-bl neutralization assay [30] was 0.166 µg/mL and the IC50 (TZM-bl neutralization) [8] was > 50 µg/mL. The IC50 in the TZM-bl neutralization assay [31] was > 50 µg/mL, the IC50 (TZM-bl neutralization) [9] was 0.003 µg/mL and the IC50 (TZM-bl neutralization) [10] was 0.074 µg/mL. The IC50 (TZM-bl neutralization) [11] was 0.847 µg/mL, the IC50 in the TZM-bl neutralization assay [32] was 14.9 µg/mL and the IC50 in the TZM-bl neutralization assay [33] was 0.191 µg/mL. The IC50 in the TZM-bl neutralization assay [34] was 0.297 µg/mL, the IC50 in the TZM-bl neutralization assay [35] was 0.36 µg/mL and the IC50 (TZM-bl neutralization) [12] was > 50 µg/mL. It also gave an IC50 in the TZM-bl neutralization assay [36] of 0.16 µg/mL, an IC50 in the TZM-bl neutralization assay [37] of 0.138 µg/mL and an IC80 (TZM-bl neutralization) [13] of 0.048 µg/mL. The IC50 in the TZM-bl neutralization assay [38] was 1.2 µg/mL, the IC50 (TZM-bl neutralization) [39] was 0.06 µg/mL and the IC50 in the TZM-bl neutralization assay [40] was 6.53 µg/mL. The IC50 in the TZM-bl neutralization assay [41] was > 50 µg/mL, the IC50 in the TZM-bl neutralization assay [42] was 0.398 µg/mL and the IC50 (TZM-bl neutralization) [14] was 0.17 µg/mL. The IC50 (TZM-bl neutralization) [15] was 0.666 µg/mL, the IC50 (TZM-bl neutralization) [16] was 0.016 µg/mL and the IC50 (TZM-bl neutralization) [17] was > 50 µg/mL. The IC50 in the TZM-bl neutralization assay [43] was 0.922 µg/mL, the IC50 (TZM-bl neutralization) [18] was > 50 µg/mL and the IC50 in the TZM-bl neutralization assay [44] was > 50 µg/mL. The IC50 (TZM-bl neutralization) [19] was 0.045 µg/mL, the IC50 in the TZM-bl neutralization assay [45] was 0.048 µg/mL and the IC50 in the TZM-bl neutralization assay [46] was 13.3 µg/mL. For the same substance, the IC50 (TZM-bl neutralization) [20] was 0.037 µg/mL, the IC50 (TZM-bl neutralization) [21] was 0.009 µg/mL and the IC50 in the TZM-bl neutralization assay [47] was 2.37 µg/mL. The IC80 (TZM-bl neutralization) [22] was 0.017 µg/mL, the IC50 (TZM-bl neutralization) [23] was 0.005 µg/mL and the IC50 (TZM-bl neutralization) [24] was > 50 µg/mL.
